For 14 sequences, protein production results are on record in a protein production outcome set (Wang et al. 2014).

A short description of the data set: label from the status in PepcDB records.

As for “MKKIAIFGSAFNPPSLGHKSVIESLSHFDLVLLEPSIAHAWGKNMLDYPIRCKLVDAFIKDMGLSNVQRSDLEQALYQPGQSVTTYALLEKIQEIYPTADITFVIGPDNFFKFAKFYKAEEITERWTVMACPEKVKIRSTDIRNALIEGKDISTYTTPTVSELLLNEGLYR”, the protein production result is recorded as “not failed”. The result for “MKKIAVFADVQNLYYTVRQAYGCHFNYAALWADISKRGEIVHAFAYAIDRGDSKQQQFQQILRNLGFTVRLKPYIQRSDGSAKGEWDVGITIDIMDFAPQVDEVVLASGDGDFDMLLDRVISKHGVEAVAYGVPGLTANSLIRAASRYVPIEGALLLK” reads “not failed”; that for “MKKIAVTYGEEKYSYADIIKYVNYYSEFLDISKGDRVALMMENRPESIFSFFSIWAKKGIALSLDAGYTVEQLAFVLNDSKPKYIFVSNKIKEVVEKANEQVGNIVKIMVVDEITLPTDYVIKQEEYENDSNEDLAVIVYTSGTTGNPKGVMITYELEHHHHHH”, “not failed”; that for “MKKILCAVLLLFTGASWANSDDLETSGDVVHLLLPATALGATLFYEEGHEGSWQLLKAAVSSRVIVEGLKLGVNKDRPDGSGDDSFPSGHTSDSFMAATFIQQRYGWQYGLPAYLAASYVGYTRVESDKHYVEDVLAGAAIGMLAGWYFTEPYKGITVTPLAHNGVYGLYISGQF”, “failed”. The result for “MKKKLVIILSIICIIAGGYFTMEYLKHKEKEEFFWKTQETRVEKYIHYNVKDVKSITFIEHKISPMGIPSIEGYINDDKDLWFDASISTTENFEDKFSRSGELGKLIKDPEKSVSEIEKEEKEKKKELEHHHHHH” reads “not failed”; that for “MKKKMITALGVSAIILTNFVGSTYADSKIGVSVTAPYNKNQIAEWLEMHAKPLKTTNPNAPFNDLKPFKNMVGSASIVGLGEATHGAHEVFTMKNRIVNYLVSEKGFTNLVLEEGWDRALELDRYVLTGEGNPSQHLSPVFKTKEMLDLLNWIRQYNANPKHKSKVRIIGMDIQSVNENVYNNIIEYVKRTNSKLVPRIEEKIKGLIPVTKDMNTFESLTKEEKEKYISDAKQISAVLEENKSYLNGKSKEFAWIKQNARIIEQFTTMLTSPPDKPSDLFLKHDIAMYENAKWTEEHLGKTIVWGHNGHVSKTNMLPFVYPKVAGQYLAEYYGKRYVSIGTSVYEGQYNVKNSDGEFGPYGILKSDDPNSYNYIFGQVKKDQFFIDLRKANGVTKNWLNEQHPIFAGVTTEGPGIPKTVDISLGKAFDILVQIQKVSPSQLHQLEHHHHHH”, “failed”; that for “MKKLAIAISTILLSGAAYAGNTADVELFNADDNDVNIFQMSPAVGNDADVLIRNSDENEVDIYQMGRHNDAVVRVRNGSDDNDLMIDQDGRHNRAVLKARLGSDENDFAIEQDGRLNLGKVIADDSDNNNGLIDQRGRRNEAYINFDSASDNSNNKIVQRGRRNEGEISVMGGSNNGTLKIRQKGHDNDSKIHVYGGSGNEALTKINGDDNTTYTAFYAGASDNDTTILMKNDSLDNTVYAVVVGGSFNEADVTIDSSNDNFVSVAQWGDSSMAEVTLENGSNDNWIMINQTNNDMATVTADNSSYNAVVITQL”, “failed”. As for “MKKLIVDLDGTLTQANTSDYRNVLPRLDVIEQLREYHQLGFEIVISTARNMRTYEGNVGKINIHTLPIITEWLDKHQVPYDEILVGKPWCGHDGFYIDDRAVRPSEFASMNLEEIHQLFEKEKSCS”, the protein production entry is “not failed”. The result for “MKKLKRAYKMEINPTDEQKSKIHQTIGVSRFIYNFYIARNKEIYEKEGKFVSGMDFSKWLNNEYIPNNQEMKWIKEVSSKATKQAIMNGDKSFRDFFKKAKGFPRFKKKKNQDVKAYFPKNNKTDWTIERHRVKIPTLGWVRLKEFGYIPTNSIVKSGTVSQKADRYYVSILVEETDIKISNSNIGIKIFNHNNEGIGIDLGIKDFAICSNGNKFKNINKTSTIKKVEKNLKREQRKLSRKYESLKIRNKKEKGGNVTRQNIQKQIVKVQKLHQRLTNIRTDYINKIVSSIIKQKPSYITIEDLNVKGMMKNKHLSKAIASQKFFEFKTKLMSKCKQNDVELRIVDRFYPSSKTCSQCGEIKKDLKLSDRVYKCSCGLVIDRDLNASINLRNAKEYKIALEHHHHHH” reads “not failed”; that for “MKKNYMKALVVATTLAIPFATYSTPALAALKVEANQSVAAASDRTYDTEIKIYKDQKDEPSMVSQYIKDPKVTIAAGKKIVTVTMQDSDYFQYLRIEDKNQPGVFHDVKVLSEDKRKNGTKVVQFEIGEFEKKHNMQMHILIPAIGYDHKYQVQFEIKDPTVGNKETEKPDDNSNSGNTETDNPVDNQNMITDNKLRELVNKKVFNRKDLNTPITKEDLLQVKDLFLNTNEILDYSALKYMPNLKSLTVANAKIKDPSFFANLKQLNHLALRGNEFADVTPLVKMDNLESLDLSNNKITNVAPLTEMKNVKSLFLSGNQIEDVTALAKMEQLDYLNLANNKITNVAPLSNLKNVTYLTLAGNQIEDIKPLYTLPLKDLVLTRNKVKDLSGIDQLNQLQELWIGKNEITDVTPLSKMTQLKILNLPNNELKDITPLSSLVNLQKLDLEANYISDLSPVSNLKKLVFLSFVANEIRDVRPVIELSKTAYINVQNQKVFLEETEVNKEVKVPIYEKDGEISTKIRLKSDNGTYSNGVVKWSTPGEKVYEFGVKDPFADTGIFFTGSVIQNVVESKDGNTSKEDEKTEVVEFKDVPKGHWSEEAINYLAKEKLFIGYGNGEFGFGDNITRGQVALLIQRYLKLENNLEQKTAFTDTKGNMYETAIDAVVQAGIMTGYGNGMFRPDGVLTRYEMSVVLQRVFQLKENENSAENFKDVPNGHWAKGYVKALVDNKISKGDGEGNFLGDNFVTREQYAQFLYNAIKK”, “failed”. The entry for “MKKPKFLSLQEDDTFEKMRQSRLQKNKRKRDSGLNVFEEVVKDLTYGYMKIGDGDEIYGKHRKKKRVSKAKELEMAMTLEALKKDQEKGDIVAKNHSWQAAISRAAGIKIHDDPKRLKKRIHKETKMREKNTEKWKERVDVQQKFRAEKQQKRSENVIDRIQQKKMRKIAKREKKLLRPGY” is “failed”. The result for “MKKPVHDMRQHIIDVARSLMTNKGYTAVGLAEVLITAGVPKGSFYYYFKSKEEFGQALLEEYFSEYLGRVDALMARPGTGAERLLAYFMYWSETQGTDLPEGKCLVVKLGAEVCDLSEDMRCVLEVGTAKIIQRISACVEMGVSDGSIHPEGDHQGFAESLYQLWLGASLLVKVNKSTESFDKALNMTKRLLK” reads “failed”; that for “MKKRAVLILSMMLAAQAAFYTSSNTASAAIGEAVIATDEINVRSGPGLSHEIVSVVSRNESYPILEERGDWVQIQLNGGQKGWVVSWLIKKKSQVSSGSDSASGKVTSSEANLRIRKGPGTSYEVQGVFPEGEQADLLKTDGKWIKISYQNITGWVYSDYVNQGSGAKQSQSSSSHASSSKSGTVGVSTLNVRSTASHQGRIIATLQRNASVTILNEQHGWYEIEFNGQKGWAASHYILEGNKQNSGTSETSSSSEAKRQATIVYEGTNVRSGPSTSSAIVKRTGKGESYPIVSTKGDWYEIKLSNGDSAYVASWVVQTVDQAGSAGDSKSAAPPLAKRSSSGGTIKNKTVVIDAGHGGHDSGTIGTRGTLEKRLTIKTATLLAAKLRADGVNVYMTRNDDSFVSLQSRVATSHYRNADAFISIHYDSFPNASVRGNTAYYYSPSKDRKLAADVQSEIERHSPLPSRGVLFGDYFVLRENKQPAALFELGYLSHPQEEAVVSTNAYRERVTDGIRSGLENYFD”, “failed”. On to “MKKRHLLIAGLACMTILGACNNDDAGSSGQAVVEVDGHEISDAEFVDMLKERYGEAILQELVQRHLISQAADSVEIPQEEIDEELETFKSQIGVETDDEMLDALSNQFGITVENKEEFVNEYILPPLVLEKLAVEGVEITDEEKQAYFDENRDSLIEVEASHILVEDEETAEEVLDRLEAGDDFAELASEYSVDPSAEANNGDLGFFGKGDMVPEFEEAAFNMEIDEVSEPVESTYGYHIILVTDRKDSYEELEEKIHDTLMRERSRTQEEVLRDLLAQADINVLDDQFEGLFDLPDAPPVEDTPEIDGEDASDEAEDQAEDADENAEEEDES”, for which the protein production result is on record as “failed”.
